This experiment concerns the target T1, Ebolavirus glycoprotein (EGP) of the Zaire strain (Zaire ebolavirus, UniProt Q05320 33-650).
T1 sequence: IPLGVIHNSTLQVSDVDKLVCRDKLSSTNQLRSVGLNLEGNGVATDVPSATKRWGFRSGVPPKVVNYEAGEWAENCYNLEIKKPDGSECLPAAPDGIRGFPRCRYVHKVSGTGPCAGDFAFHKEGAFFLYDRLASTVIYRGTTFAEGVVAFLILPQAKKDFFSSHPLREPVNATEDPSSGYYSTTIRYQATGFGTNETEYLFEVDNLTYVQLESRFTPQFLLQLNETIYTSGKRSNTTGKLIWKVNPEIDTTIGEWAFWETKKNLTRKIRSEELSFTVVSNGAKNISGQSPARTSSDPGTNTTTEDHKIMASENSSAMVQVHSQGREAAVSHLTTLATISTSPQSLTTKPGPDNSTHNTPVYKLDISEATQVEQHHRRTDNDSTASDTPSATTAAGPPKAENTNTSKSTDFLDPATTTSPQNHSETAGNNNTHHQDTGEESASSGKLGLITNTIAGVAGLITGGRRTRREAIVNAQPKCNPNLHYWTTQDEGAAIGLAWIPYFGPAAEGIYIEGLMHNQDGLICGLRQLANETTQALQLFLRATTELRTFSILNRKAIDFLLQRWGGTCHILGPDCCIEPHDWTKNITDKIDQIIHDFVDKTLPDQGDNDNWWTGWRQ
The note with it: both partners purified.

B1: TIM-1 (receptor, UniProt Q96D42 21-295, looked up)
chain: SVKVGGEAGPSVTLPCHYSGAVTSMCWNRGSCSLFTCQNGIVWTNGTHVTYRKDTRYKLLGDLSRRDVSLTIENTAVSDSGVYCCRVEHRGWFNDMKITVSLEIVPPKVTTTPIVTTVPTVTTVRTSTTVPTTTTVPMTTVPTTTVPTTMSIPTTTTVLTTMTVSTTTSVPTTTSIPTTTSVPVTTTVSTFVPPMPLPRQNHEPVATSPSSPQPAETHPTTLQGAIRREPTSSPLYSYTTDGNDTVTESSDGLWNNNQTQLFLEHSLLTANTTKG
The molecule B1 displayed a ΔSPR of 35 nm.

Values taken from paper PMC12070368 (ACS Applied Nano Materials, 2025).
